Binding score data for nine molecules are collected here from publication PMC11098746 (2024).

First the molecules themselves.
B1: ADP392 (protein)
chain: GLTRSCDSSGDGGPGTAPAPSHLPSSTASPSGPPAQDQDICPASEDESGQWKNFRLPDFVNPVHYDLHVKPLLEEDTYTGTVSISINLSAPTRYLWLHLRETRITRLPELKRPSGDQVQVRRCFEYKKQEYVVVEAEEELTPSSGDGLYLLTMEFAGWLNGSLVGFYRTTYTENGQVKSIVATDHEPTDARKSFPCFDEPNKKATYTISITHPKEYGALSNMPVAKEESVDDKWTRTTFEKSVPMSTYLVCFAVHQFDSVKRISNSGKPLTIYVQPEQKHTAEYAANITKSVFDYFEEYFAMNYSLPKLDKIAIPDFGTGAMENWGLITYRETNLLYDPKESASSNQQRVATVVAHELVHQWFGNIVTMDWWEDLWLNEGFASFFEFLGVNHAETDWQMRDQMLLEDVLPVQEDDSLMSSHPIIVTVTTPDEITSVFDGISYSKGSSILRMLEDWIKPENFQKGCQMYLEKYQFKNAKTSDFWAALEEASRLPVKEVMDTWTRQMGYPVLNVNGVKNITQKRFLLDPRANPSQPPSDLGYTWNIPVKWTEDNITSSVLFNRSEKEGITLNSSNPSGNAFLKINPDHIGFYRVNYEVATWDSIATALSLNHKTFSSADRASLIDDAFALARAQLLDYKVALNLTKYLKREENFLPWQRVISAVTYIISMFEDDKELYPMIEEYFQGQVKPIADSLGWNDAGDHVTKLLRSSVLGFACKMGDREALNNASSLFEQWLNGTVSLPVNLRLLVYRYGMQNSGNEISWNYTLEQYQKTSLAQEKEKLLYGLASVKNVTLLSRYLDLLKDTNLIKTQDVFTVIRYISYNSYGKNMAWNWIQLNWDYLVNRYTLNNRNLGRIVTIAEPFNTELQLWQMESFFAKYPQAGAGEKPREQVLETVKNNIEWLKQHRNTIREWFFNLLESG
modifications: bait human Fc-tagged dimer
B2: ADP276 (protein)
chain: DRGHLDYPRNPRREGSFPQGQLSMLQEKIDHLERLLAENNEIISNIRDSVINLSESVEDGPKSSQSNFSQGAGSHLLPSQLSLSVDTADCLFASQSGSHNSDVQMLDVYSLISFDNPDGGVWKQGFDITYESNEWDTEPLQVFVVPHSHNDPGWLKTFNDYFRDKTQYIFNNMVLKLKEDSRRKFIWSEISYLSKWWDIIDIQKKDAVKSLIENGQLEIVTGGWVMPDEATPHYFALIDQLIEGHQWLENNIGVKPRSGWAIDPFGHSPTMAYLLNRAGLSHMLIQRVHYAVKKHFALHKTLEFFWRQNWDLGSVTDILCHMMPFYSYDIPHTCGPDPKICCQFDFKRLPGGRFGCPWGVPPETIHPGNVQSRARMLLDQYRKKSKLFRTKVLLAPLGDDFRYCEYTEWDLQFKNYQQLFDYMNSQSKFKVKIQFGTLSDFFDALDKADETQRDKGQSMFPVLSGDFFTYADRDDHYWSGYFTSRPFYKRMDRIMESHLRAAEILYYFALRQAHKYKINKFLSSSLYTALTEARRNLGLFQHHDAITGTAKDWVVVDYGTRLFHSLMVLEKIIGNSAFLLILKDKLTYDSYSPDTFLEMDLKQKSQDSLPQKNIIRLSAEPRYLVVYNPLEQDRISLVSVYVSSPTVQVFSASGKPVEVQVSAVWDTANTISETAYEISFRAHIPPLGLKVYKILESASSNSHLADYVLYKNKVEDSGIFTIKNMINTEEGITLENSFVLLRFDQTGLMKQMMTKEDGKHHEVNVQFSWYGTTIKRDKSGAYLFLPDGNAKPYVYTTPPFVRVTHGRIYSEVTCFFDHVTHRVRLYHIQGIEGQSVEVSNIVDIRKVYNREIAMKISSDIKSQNRFYTDLNGYQIQPRMTLSKLPLQANVYPMTTMAYIQDAKHRLTLLSAQSLGVSSLNSGQIEVIMDRRLMQDDNRGLEQGIQDNKITANLFRILLEKRSAVNTEEEKKSVSYPSLLSHITSSLMNHPVIPMANKFSSPTLELQGEFSPLQSSLPCDIHLVNLRTIQSKVGNGHSNEAALILHRKGFDCRFSSKGTGLFCSTTQGKILVQKLLNKFIVESLTPSSLSLMHSPPGTQNISEINLSPMEISTFRIQLR
modifications: bait human Fc-tagged dimer
B3: ADP339 (protein)
chain: MASPFLVLAIGTCLTNSLVPEKEKDPKYWRDQAQETLKYALELQKLNTNVAKNVIMFLGDGMGVSTVTAARILKGQLHHNPGEETRLEMDKFPFVALSKTYNTNAQVPDSAGTATAYLCGVKANEGTVGVSAATERSRCNTTQGNEVTSILRWAKDAGKSVGIVTTTRVNHATPSAAYAHSADRDWYSDNEMPPEALSQGCKDIAYQLMHNIRDIDVIMGGGRKYMYPKNKTDVEYESDEKARGTRLDGLDLVDTWKSFKPRYKHSHFIWNRTELLTLDPHNVDYLLGLFEPGDMQYELNRNNVTDPSLSEMVVVAIQILRKNPKGFFLLVEGGRIDHGHHEGKAKQALHEAVEMDRAIGQAGSLTSSEDTLTVVTADHSHVFTFGGYTPRGNSIFGLAPMLSDTDKKPFTAILYGNGPGYKVVGGERENVSMVDYAHNNYQAQSAVPLRHETHGGEDVAVFSKGPMAHLLHGVHEQNYVPHVMAYAACIGANLGHCAPASS
modifications: bait human Fc-tagged dimer
B4: ADP361 (protein)
chain: MAPPQVLAFGLLLAAATATFAAAQEECVCENYKLAVNCFVNNNRQCQCTSVGAQNTVICSKLAAKCLVMKAEMNGSKLGRRAKPEGALQNNDGLYDPDCDESGLFKAKQCNGTSMCWCVNTAGVRRTDKDTEITCSERVRTYWIIIELKHKAREKPYDSKSLRTALQKEITTRYQLDPKFITSILYENNVITIDLVQNSSQKTQNDVDIADVAYYFEKDVKGESLFHSKKMDLTVNGEQLDLDPGQTLIYYVDEKAPEFSMQGLKAG
modifications: bait human Fc-tagged dimer
B5: ADP373 (protein)
chain: MAKASCLPLGFIVFLPAVLLLVAPPLPAADAAHEFTVYRMQQYDLQGQPYGTRNAVLNTEARTMAAEVLSRRCVLMRLLDFSYEQYQKALRQSAGAVVIILPRAMAAVPQDVVRQFMEIEPEMLAMETAVPVYFAVEDEALLSIYKQTQAASASQGSASAAEVLLRTATANGFQMVTSGVQSKAVSDWLIASVEGRLTGLGGEDLPTIVIVAHYDAFGVAPWLSLGADSNGSGVSVLLELARLFSRLYTYKRTHAAYNLLFFASGGGKFNYQGTKRWLEDNLDHTDSSLLQDNVAFVLCLDTVGRGSSLHLHVSKPPREGTLQHAFLRELETVAAHQFPEVRFSMVHKRINLAEDVLAWEHERFAIRRLPAFTLSHLESHRDGQRSSIMDVRSRVDSKTLTRNTRIIAEALTRVIYNLTEKGTPPDMPVFTEQMQIQQEQLDSVMDWLTNQPRAAQLVDKDSTFLSTLEHHLSRYLKDVKQHHVKADKRDPEFVFYDQLKQVMNAYRVKP
modifications: bait human Fc-tagged dimer
B6: ADP103 (protein)
chain: MAAALFVLLGFALLGTHGASGAAGFVQAPLSQQRWVGGSVELHCEAVGSPVPEIQWWFEGQGPNDTCSQLWDGARLDRVHIHATYHQHAASTISIDTLVEEDTGTYECRASNDPDRNHLTRAPRVKWVRAQAVVLVLEPGTVFTTVEDLGSKILLTCSLNDSATEVTGHRWLKGGVVLKEDALPGQKTEFKVDSDDQWGEYSCVFLPEPMGTANIQLHGPPRVKAVKSSEHINEGETAMLVCKSESVPPVTDWAWYKITDSEDKALMNGSESRFFVSSSQGRSELHIENLNMEADPGQYRCNGTSSKGSDQAIITLRVRSHL
modifications: bait human Fc-tagged dimer
B7: ADP380 (protein)
chain: VLEEVQQVRRSHQDFSRQREELGQGLQGVEQKVQSLQATFGTFESILRSSQHKQDLTEKAVKQGESEVSRISEVLQKLQNEILKDLSDGIHVVKDARERDFTSLENTVEERLTELTKSINDNIAIFTEVQKRSQKEINDMKAKVASLEESEGNKQDLKALKEAVKEIQTSAKSREWDMEALRSTLQTMESDIYTEVRELVSLKQEQQAFKEAADTERLALQALTEKLLRSEESVSRLPEEIRRLEEELRQLKSDSHGPKEDGGFRHSEAFEALQQKSQGLDSRLQHVEDGVLSMQVASARQTESLESLLSKSQEHEQRLAALQGRLEGLGSSEADQDGLASTVRSLGETQLVLYGDVEELKRSVGELPSTVESLQKVQEQVHTLLSQDQAQAARLPPQDFLDRLSSLDNLKASVSQVEADLKMLRTAVDSLVAYSVKIETNENNLESAKGLLDDLRNDLDRLFVKVEKIHEKV
modifications: bait human Fc-tagged dimer
B8: ADP144 (protein)
chain: MELRARGWWLLCAAAALVACARGDPASKSRSCGEVRQIYGAKGFSLSDVPQAEISGEHLRICPQGYTCCTSEMEENLANRSHAELETALRDSSRVLQAMLATQLRSFDDHFQHLLNDSERTLQATFPGAFGELYTQNARAFRDLYSELRLYYRGANLHLEETLAEFWARLLERLFKQLHPQLLLPDDYLDCLGKQAEALRPFGEAPRELRLRATRAFVAARSFVQGLGVASDVVRKVAQVPLGPECSRAVMKLVYCAHCLGVPGARPCPDYCRNVLKGCLANQADLDAEWRNLLDSMVLITDKFWGTSGVESVIGSVHTWLAEAINALQDNRDTLTAKVIQGCGNPKVNPQGPGPEEKRRRGKLAPRERPPSGTLEKLVSEAKAQLRDVQDFWISLPGTLCSEKMALSTASDDRCWNGMARGRYLPEVMGDGLANQINNPEVEVDITKPDMTIRQQIMQLKIMTNRLRSAYNGNDVDFQDASDDGSGSGSGDGCLDDLCSRKVSRKSSSSRTPLTHALPGLSEQEGQKTSAAS
modifications: bait human Fc-tagged dimer
B9: ADP141 (protein)
chain: MGRLASRPLLLALLSLALCRGRVVRVPTATLVRVVGTELVIPCNVSDYDGPSEQNFDWSFSSLGSSFVELASTWEVGFPAQLYQERLQRGEILLRRTANDAVELHIKNVQPSDQGHYKCSTPSTDATVQGNYEDTVQVKVLADSLHVGPSARPPPSLSLREGEPFELRCTAASASPLHTHLALLWEVHRGPARRSVLALTHEGRFHPGLGYEQRYHSGDVRLDTVGSDAYRLSVSRALSADQGSYRCIVSEWIAEQGNWQEIQEKAVEVATVVIQPSVLRAAVPKNVSVAEGKELDLTCNITTDRADDVRPEVTWSFSRMPDSTLPGSRVLARLDRDSLVHSSPHVALSHVDARSYHLLVRDVSKENSGYYYCHVSLWAPGHNRSWHKVAEAVSSPAGVGVTWLEPDYQVYLNASKVPGFADDPTELACRVVDTKSGEANVRFTVSWYYRMNRRSDNVVTSELLAVMDGDWTLKYGERSKQRAQDGDFIFSKEHTDTFNFRIQRTTEEDRGNYYCVVSAWTKQRNNSWVKSKDVFSKPVNIFWALEDSVLVVKARQPKPFFAAGNTFEMTCKVSSKNIKSPRYSVLIMAEKPVGDLSSPNETKYIISLDQDSVVKLENWTDASRVDGVVLEKVQEDEFRYRMYQTQVSDAGLYRCMVTAWSPVRGSLWREAATSLSNPIEIDFQTSGPIFNASVHSDTPSVIRGDLIKLFCIITVEGAALDPDDMAFDVSWFAVHSFGLDKAPVLLSSLDRKGIVTTSRRDWKSDLSLERVSVLEFLLQVHGSEDQDFGNYYCSVTPWVKSPTGSWQKEAEIHSKPVFITVKMDVLNAFKYP
modifications: bait human Fc-tagged dimer

In the assay the target is Circumsporozoite protein (CSP) (Plasmodium falciparum (isolate 3D7), UniProt Q7K740). The assay can be described thus: AVEXIS screen signal:noise (double-corrected).
Chain of Circumsporozoite protein (CSP) (Q7K740 19-374): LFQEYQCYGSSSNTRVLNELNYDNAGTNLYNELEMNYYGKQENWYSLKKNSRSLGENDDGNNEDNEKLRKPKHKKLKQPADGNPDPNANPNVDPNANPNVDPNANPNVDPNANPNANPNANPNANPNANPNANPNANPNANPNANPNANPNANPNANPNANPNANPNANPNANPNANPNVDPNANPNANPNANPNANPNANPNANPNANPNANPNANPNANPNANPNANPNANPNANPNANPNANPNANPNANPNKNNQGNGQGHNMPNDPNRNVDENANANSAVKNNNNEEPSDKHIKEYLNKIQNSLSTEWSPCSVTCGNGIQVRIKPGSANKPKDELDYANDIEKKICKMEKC
With B1, the binding score came out at 0.793.

In turn, B2 yielded a binding score of 0.79.

Turning to B3, the binding score was found to be 1.02.

As to B4, the binding score came out at 6.45.

B5 showed a binding score of 1.26.

Molecule B6 yielded a binding score of 0.981.

Molecule B7 yielded a binding score of 0.68.

In turn, B8 returned a binding score of 0.883.

The molecule B9 showed a binding score of 2.49.
